Data reported in patent US12303551B2, “Cellular immunotherapy compositions and uses thereof” (CERO THERPEUTICS HOLDINGS, INC., priority 2018, dated 2025).

B1: CER105: Chimeric engulfment receptor: Tim4 binding, Tim4 transmembrane, TLR8 and Baff-R signaling; SEQ ID NO: 140 (protein)
chain: MSKGLLLLWLVTELWWLYLTPAASEDTIIGFLGQPVTLPCHYLSWSQSRNSMCWGKGSCPNSKCNAELLRTDGTRIISRKSTKYTLLGKVQFGEVSLTISNTNRGDSGVYCCRIEVPGWFNDVKKNVRLELRRATTTKKPTTTTRPTTTPYVTTTTPELLPTTVMTTSVLPTTTPPQTLATTAFSTAVTTCPSTTPGSFSQETTKGSAFTTESETLPASNHSQRSMMTISTDIAVLRPTGSNPGILPSTSQLTTQKTTLTTSESLQKTTKSHQINSRQTILIIACCVGFVLMVLLFLAFLHHLFYWDVWFIYNVCLAKVKGYRSLSTSQTFYDAYISYDTKDASVTDWVINELRYHLEESRDKNVLLCLEERDWDPGLAIIDNLMQSINQSKKTVFVLTKKYAKSWNFKTAFYLALQRLMDENMDVIIFILLEPVLQHSQYLRLRQRICKSSILQWPDNPKAEGLFWQTLRNVVLTENDSRYNNMYVDSIKQYSWRRRQRRLRGASSAEAPDGDKDAPEPLDKVIILSPGISDATAPAWPPPGEDPGTTPPGHSVPVPATELGSTELVTTKTAGPEQQ
modifications: CER105, amino acids 1-22 are signal peptide
B2: CER27: Chimeric engulfment receptor: Tim4 binding, Tim4 transmembrane, TLR2 signaling; SEQ ID NO: 98 (protein)
chain: MSKGLLLLWLVTELWWLYLTPAASEDTIIGFLGQPVTLPCHYLSWSQSRNSMCWGKGSCPNSKCNAELLRTDGTRIISRKSTKYTLLGKVQFGEVSLTISNTNRGDSGVYCCRIEVPGWFNDVKKNVRLELRRATTTKKPTTTTRPTTTPYVTTTTPELLPTTVMTTSVLPTTTPPQTLATTAFSTAVTTCPSTTPGSFSQETTKGSAFTTESETLPASNHSQRSMMTISTDIAVLRPTGSNPGILPSTSQLTTQKTTLTTSESLQKTTKSHQINSRQTILIIACCVGFVLMVLLFLAFLHRFHGLWYMKMMWAWLQAKRKPRKAPSRNICYDAFVSYSERDAYWVENLMVQELENFNPPFKLCLHKRDFIPGKWIIDNIIDSIEKSHKTVFVLSENFVKSEWCKYELDFSHFRLFDENNDAAILILLEPIEKKAIPQRFCKLRKIMNTKTYLEWPMDEAQREGFWVNLRAAIKS
modifications: CER27, amino acids 1-22 are signal peptide
B3: CER106: Chimeric engulfment receptor: Tim4 binding, Tim4 transmembrane, NFAM1 and TLR8 signaling; SEQ ID NO: 141 (protein)
chain: MSKGLLLLWLVTELWWLYLTPAASEDTIIGFLGQPVTLPCHYLSWSQSRNSMCWGKGSCPNSKCNAELLRTDGTRIISRKSTKYTLLGKVQFGEVSLTISNTNRGDSGVYCCRIEVPGWFNDVKKNVRLELRRATTTKKPTTTTRPTTTPYVTTTTPELLPTTVMTTSVLPTTTPPQTLATTAFSTAVTTCPSTTPGSFSQETTKGSAFTTESETLPASNHSQRSMMTISTDIAVLRPTGSNPGILPSTSQLTTQKTTLTTSESLQKTTKSHQINSRQTILIIACCVGFVLMVLLFLAFLLWNKKRMRGPGKDPTRKCPDPRSASSPKQHPSESVYTALQRRETEVYACIENEDGSSPTAKQSPLSQERPHRFEDDGELNLVYENLHHLFYWDVWFIYNVCLAKVKGYRSLSTSQTFYDAYISYDTKDASVTDWVINELRYHLEESRDKNVLLCLEERDWDPGLAIIDNLMQSINQSKKTVFVLTKKYAKSWNFKTAFYLALQRLMDENMDVIIFILLEPVLQHSQYLRLRQRICKSSILQWPDNPKAEGLFWQTLRNVVLTENDSRYNNMYVDSIKQY
modifications: CER106, amino acids 1-22 are signal peptide
B4: CER103B: Chimeric engulfment receptor: Tim4 binding, Tim4 transmembrane, TLR8 and CD79b (185-213) signaling; SEQ ID NO: 138 (protein)
chain: MSKGLLLLWLVTELWWLYLTPAASEDTIIGFLGQPVTLPCHYLSWSQSRNSMCWGKGSCPNSKCNAELLRTDGTRIISRKSTKYTLLGKVQFGEVSLTISNTNRGDSGVYCCRIEVPGWFNDVKKNVRLELRRATTTKKPTTTTRPTTTPYVTTTTPELLPTTVMTTSVLPTTTPPQTLATTAFSTAVTTCPSTTPGSFSQETTKGSAFTTESETLPASNHSQRSMMTISTDIAVLRPTGSNPGILPSTSQLTTQKTTLTTSESLQKTTKSHQINSRQTILIIACCVGFVLMVLLFLAFLHHLFYWDVWFIYNVCLAKVKGYRSLSTSQTFYDAYISYDTKDASVTDWVINELRYHLEESRDKNVLLCLEERDWDPGLAIIDNLMQSINQSKKTVFVLTKKYAKSWNFKTAFYLALQRLMDENMDVIIFILLEPVLQHSQYLRLRQRICKSSILQWPDNPKAEGLFWQTLRNVVLTENDSRYNNMYVDSIKQYDSKAGMEEDHTYEGLDIDQTATYEDIVTL
modifications: CER103B, amino acids 1-22 are signal peptide

test system: SCC152 cells; test: Elimination of GFP-expressing SCC152 target cells over time (quantification and time lapse imaging); assay type: cell-based; conditions: 96-well co-culture, CD8+/E7 TCR + CD4+/CER + SCC152 1:1:1, compared to control
Procedure: Target SCC152 cells were co-cultured with CD8+ T cells transduced with HPV E7 TCR+CD4+ T cells transduced with a selected CER, or controls (CD8+ T cell transduced with HPV E7 TCR+CD4+ transduced control) at a 1:1:1 ratio. The number of target cells were quantified using imaging software. 0 hours, 24 hours, and 48 hours are shown from left to right.
(§1) FIG. 21 is time lapse imaging from 96-well co-culture experiments comprising CD8+ T cells transduced with HPV16 E7 TCR+CD4+ T cells transduced with CER5, CER17 or CER19 incubated with SCC152 target cells at a 1:1:1 ratio. SCC152 HPV+ target cells were quantified using automated cell counting software.
as §1, with “22” for “21”, “CER21, CER23” for “CER5, CER17”, “CER26” for “CER19”
as §1, with “23” for “21”, “CER103b, CER104” for “CER5, CER17”, “CER105” for “CER19”
as §1, with “24” for “21”, “CER106, CER116” for “CER5, CER17”, “CER27” for “CER19”
FIG. 57 is a bar graph showing quantification of loss of SCC152 HPV16+ target cells over time during co-culture assays. SCC152 cells were transduced with green fluorescent protein (GFP) and co-cultured with CD8+ T cells transduced with HPV16 E7 TCR and CD4+ T cells transduced with a selected CER (CER29, CER30, CER110, CER112, CER113, CER114, CER116, or CER117) or a CD4+ T cell control at a 1:1:1 ratio (CD8:CD4:target cell). The number of target cells was quantified at various time points during co-culture (0 hrs, 12 hrs, 24 hrs, and 36 hrs) using fluorescence microscopy and imaging software.
(§2) FIG. 58 are fluorescence micrograph images of the co-culture assay described in FIG. 57, showing clearance of the SCC152 cells (pink) as co-culture with CD8+ T cells transduced with HPV16 E7 TCR and CD4+ T cells transduced with a selected CER (columns from left to right: control, CER29, CER30, CER110, or CER112) progresses (rows from top to bottom: 0 hrs, 12 hrs, 24 hrs, and 36 hrs).
as §2, with “59” for “58”, “CER113, CER114, CER116,” for “CER29, CER30, CER110,”, “CER117)” for “CER112)”
(§3) Elimination of target SCC152 cells was also detected by quantifying green fluorescent protein expression by SCC152 cells over time (0 hr, 24 hr, 48 hr) during co-incubation with CD8+ T cells transduced with HPV16 E7 specific TCR+ CD4 T cells transduced with selected CER (see, FIG. 20).
as §3, with “hr, 12 hr,” for “hr,”, “hr, 36” for “hr, 48”, “TCR+ CD4+” for “TCR+ CD4”, “CER (CER29, CER30, CER110, CER112, CER113, CER114, CER116, or CER117)” for “CER”, “FIG. 57).” for “FIG. 20).”

| Molecule | number of SCC152 cells in time lapse imaging |
| --- | --- |
| B1 | decreasing in numbers over time |
| B2 | decreasing in numbers over time |
| B3 | decreasing in numbers over time |
| B4 | decreasing in numbers over time |
